Read-outs that look alike come from different tables or passages of the source.
Key:
hCD32a-H131 (human) [1] = target: hCD32a-H131 (human) (UniProt P12318)
hCD16a-F158 (human) [2] = target: hCD16a-F158 (human) (UniProt P08637)
hCD16a-F158 (human) [3] = target: hCD16a-F158 (human) (UniProt P08637); remark: listed apart in the source
hCD32a-H131 (human) [4] = target: hCD32a-H131 (human) (UniProt P12318); remark: listed apart in the source

Sequence of hCD16a-F158 (human) (P08637 17-208): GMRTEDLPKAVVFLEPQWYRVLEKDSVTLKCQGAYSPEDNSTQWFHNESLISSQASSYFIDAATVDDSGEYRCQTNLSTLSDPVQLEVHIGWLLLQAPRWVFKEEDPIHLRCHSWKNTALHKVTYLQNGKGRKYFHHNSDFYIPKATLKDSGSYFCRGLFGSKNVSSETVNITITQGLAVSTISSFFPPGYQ
Sequence of hCD32a-H131 (human) (P12318 34-217): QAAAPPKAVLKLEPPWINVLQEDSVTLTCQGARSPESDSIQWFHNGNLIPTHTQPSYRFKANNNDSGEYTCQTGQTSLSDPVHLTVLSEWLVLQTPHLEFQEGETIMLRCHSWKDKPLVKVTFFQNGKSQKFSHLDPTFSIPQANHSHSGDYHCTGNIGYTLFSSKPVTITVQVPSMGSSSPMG

| Substance | Kd (hCD32a-H131 (human) [1]) [µM] | Kd (hCD16a-F158 (human) [2]) [µM] | Kd (hCD16a-F158 (human) [3]) [µM] | Kd (hCD32a-H131 (human) [4]) [µM] |
| --- | --- | --- | --- | --- |
| IgG1f-S267E | 650 | > 5000 | – | – |
| IgG1f | – | – | 200 | 530 |

Source: patent US20200030425
